The values that follow come from IntAct's records for PubMed 30241482.

The labels stand for the following.
B1: Protein ripply3 (Homo sapiens), P57055 (parent)
chain: MEPEAAAGARKARGRGCHCPGDAPWRPPPPRGPESPAPWRPWIQTPGDAELTRTGRPLEPRADQHTFGSKGAFGFQHPVRVYLPMSKRQEYLRSSGEQVLASFPVQATIDFYDDESTESASEAEEPEEGPPPLHLLPQEVGGRQENGPGGKGRDQGINQGQRSSGGGDHWGEGPLPQGVSSRGGKCSSSK
partner: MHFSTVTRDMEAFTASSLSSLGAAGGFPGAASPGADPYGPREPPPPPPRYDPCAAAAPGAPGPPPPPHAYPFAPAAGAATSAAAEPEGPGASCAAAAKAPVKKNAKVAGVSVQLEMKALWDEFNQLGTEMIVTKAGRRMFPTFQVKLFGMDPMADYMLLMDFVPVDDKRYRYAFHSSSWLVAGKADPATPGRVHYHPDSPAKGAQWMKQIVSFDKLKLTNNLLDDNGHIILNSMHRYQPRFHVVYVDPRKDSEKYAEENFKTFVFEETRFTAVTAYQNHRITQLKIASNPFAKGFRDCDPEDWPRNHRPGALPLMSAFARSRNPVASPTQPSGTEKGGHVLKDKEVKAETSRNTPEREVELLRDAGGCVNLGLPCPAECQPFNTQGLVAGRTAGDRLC

The variants in the experiment derive from B1. Conditions: with tbx1_human TBX1, O43435.
As to D113N, the “effect of a mutation on the interaction” value was “with no effect”. Consider T52S, for which the “effect of a mutation on the interaction” value is on record as “decreasing interaction strength”. On to P30L, for which the “effect of a mutation on the interaction” value is “with no effect”. As to V179D, the “effect of a mutation on the interaction” value is “with no effect”.
